Here are results for 19 sequences from a protein production outcome set (Wang et al. 2014).

The nature of this series: label from the status in PepcDB records.
For “MSLKITKVEVIPISTPMKRAQLMRGATLARIDGVLLKLHSDEGLVGIADAGDTSSWYRGETQDSITSMICDFFAPKVLLGEDPTKIEKIVGRMDILTRDNNQAKATVDFALHDLVGKRFGVPVYQLLGGKTIERIPLGLVLGAGEPEAVAEEALAVLREGFHFVKLKAGGPLKADIAMVAEVRRAVGDDVDLFIDINGAWTYDQALTTIRALEKYNLSKIEQPLPAWDLDGMARLRGKVATPIYADESAQELHDLLAIINKGAADGLMIKTQKAGGLLKAQRWLTLARLANLPVICGCMVGSGLEASPAAHLLAANDWIAQFPQENAGPLHIHDCLNSRDIDNDIALNVPRFEGGYLYPNDGPGLGIELNEDLVRRLVTPGKAARVVTAEGHHHHHH”, the protein production entry is listed as “not failed”.
Regarding “MSLKITRIDIHRTDLPVRGGVYRLSGGREYHSYDATIVSIETDTGLTGWGESTPFGSTYIAAHAGGTRAALELLAPAILGMDPRQHDRIWDRMRDTLKGHRDARAALDIACWDIAAQAAGLPLCDMTGGRVAGPVPVISSIGGDTPEAMRAKVARHRAQGFKGHSIKIGASEAEGGPALDAERITACLADRQPGEWYLADANNGLTVEHALRMLSLLPPGLDIVLEAPCASWAETKSLRARCALPLLLDELIQTETDLIAAIRDDLCDGVGLKVSKQGGITPMLRQRAIAAAAGMVMSVQDTVGSQISFAAILHLAQSTPRHLLRCALDTRAMTTAELAEIDAPLRDGGASAPSDPGLGLRVNRDALGTPVKTFGDPIEGHHHHHH”, the protein production entry was “not failed”.
For “MSLKKVLLCVGNELRGDDGVAIALGRLVEEQMPEWSVFFGYDTPESEFGKLRELAPDVIVVADAMSGFKEGEIEFLDLSDERTYLYSTHNLPTPILISYLRGICSKTIFLGISVLLENVLHFSEGLSQGASDSAFVALGRIKELDGMLKEGHHHHHH” the value was “not failed”; for “MSLKKVVIIGGGAAGMSAASRVKRLKPEWDVKVFEATEWVSHAPCGIPYVVEGLSTPDKLMYYPPEVFIKKRGIDLHLNAEVIEVDTGYVRVRENGGEKSYEWDYLVFANGASPQVPAIEGVNLKGVFTADLPPDALAIREYMEKYKVENVVIIGGGYIGIEMAEAFAAQGKNVTMIVRGERVLRRSFDKEVTDILEEKLKKHVNLRLQEITMKIEGEERVEKVVTDAGEYKAELVILATGIKPNIELAKQLGVRIGETGAIWTNEKMQTSVENVYAAGDVAETRHVITGRRVWVPLAPAGNKMGYVAGSNIAGKELHFPGVLGTAVTKFMDVEIGKTGLTEMEALKEGYDVRTAFIKASTRPHYYPGGREIWLKGVVDNETNRLLGVQVVGSDILPRIDTAAAMLMAGFTTKDAFFTDLAYAPPFAPVWDPLIVLARVLKEGHHHHHH”, “not failed”; for “MSLKNSSRSAVDPFIVMDVMEAARRAEEAGRRIIHMEVGQPGTGAPRGAVEALAKSLETDALGYTVALGLPALRQRIARLYGEWYGVDLDPGRVVITPGSSGGFLLAFTALFDSGDRVGIGAPGYPSYRQILRALGLVPVDLPTAPENRLQPVPADFAGLDLAGLMVASPANPTGTMLDHAAMGALIEAAQAQGASFISDEIYHGIEYEAKAVTALELTDECYVINSFSKYFSMTGWRVGWMVVPEDQVRVVERIAQNMFICAPHASQVAALAALDCDAELQANLDVYKANRKLMLERLPKAGFTRIAPPDGAFYVYADVSDLTDDSRAFAAEILEKAGVAVTPGLDFDPERGAGTLRFSYARATADIEEGLDRLEAFMQARGEGHHHHHH”, “not failed”.
Regarding “MSLKQKILIVEDSMTIRRMLIQAIAQQTGLEIDAFDTLEGARHCQGDEYVVALVDLTLPDAPSGEAVKVLLERGLPVVILTADISEDKREAWLEAGVLDYVMKDSRHSLQYAVGLVHRLYLNQQIEVLVVDDSRTSRHRTMAQLRKQLLQVHEASHAREALATLEQHPAIRLVLVDYYMPEIDGISLVRMLRERYSKQQLAIIGISVSDKRGLSARYLKQGANDFLNQPFEPEELQCRVSHNLEALEQFNSEGHHHHHH”, the protein production result was “not failed”.
Consider “MSLKQQFSTKAFQAANLEAYKAQMKEMEESFGALLRQLPSDTEVPGLLEDITRTGLGSGLEFEEIKLLPEVAQQFYIELPIQISVVGGYHDLATFVSGVSSLPRIVTLHDFEIKPVAPGSTSKLRMSILAKTYRYNDKGEGHHHHHH”, for which the protein production result is reported as “not failed”.
The value for “MSLKTYKGYLIDLDGTMYNGTEKIEEACEFVRTLKDRGVPYLFVTNNSSRTPKQVADKLVSFDIPATEEQVFTTSMATAQHIAQQKKDASVYVIGEEGIRQAIEENGLTFGGENADFVVVGIDRSITYEKFAVGCLAIRNGARFISTNGDIAIPTERGLLPGNGSLTSVLTVSTGVQPVFIGKPESIIMEQAMRVLGTDVSETLMVGDNYATDIMAGINAGMDTLLVHTGVTKREHMTDDMEKPTHAIDSLTEWIPYIEGHHHHHH” was “not failed”; that for “MSLKYQLRFGGEGGQGVITAGEILAEAAIKEGRQAFKASTYTSQVRGGPTKVDIIIDDKEILFPYAVEGEVDFMLSTADKGYKGFRGGVKEGGIIVVEPNLVHPESEDYKKWQIFEIPIITIAKDEVGNVATQSVVALAIAAYMSKCIDLDVLKETMLHMVPAKTRDANAKAFDLGVKYATQAKPHEGHHHHHH” was “not failed”; that for “MSLLERLNQDMKLYMKNREKDKLTVVRMVKASLQNEAIKLKKDSLTEDEELTVLSRELKQRKDSLQEFSNANRLDLVDKVQKELDILEVYLPEQLSEEELRTIVNETIAEVGASSKADMGKVMGAIMPKVKGKADGSLINKLVSSQLS” was “not failed”.
In the case of “MSLLLTNHIGYERLGPKKAIIQTEQPHLSSYTAQLICATSEQTVATFAVEEQGKVANWHQGYFYLIDFSSFTDSGDYFLQVEDSRSSSFTVGEHILLEQTLSDVIHYFKSQRCGGVFDQQDRQVPVLNANQTADVHGGWYDASGDVSKYLSHLSYANYLNPQQTPMVVWNILKGLSLLEGSEDIAAFTRTRLIEEALFGADFLVRMQNEKGFFYMTVFDKWSKDTAQREICAYETQLGHKFDDYQAGFRQGGGVAIAALAAASRLGVHGEYDQQKYRNAAENGYWHLKEHNTQYLNDGEENIIDEYCALLASVELFKATKETRYLEESRLWAQRLVARQMSDEQIQHFWSANQDGSRPYFHAAEAGLPVIALCEYLAIEDDSVQTESVKRIVNRACEFEIKISNKVTNPFGYPRQYVKGVNESKRDAFFVAHNNESGYWWQGENARLGSLATMAYLAQPHIASQEIQQQLSVFAQDALNWIVGLNPYDMCMLDGHGRNNPDYLPQYGFFNAKGGVCNGITGGFEDEEDIAFNPPAQKDDMLQNWRWGEQWIPHGAWYLLAIMSQAQHISQLATSKNIKEGHHHHHH”, the protein production entry was “not failed”.
As for “MSLNGKLDFSNRQARILYNKAIAKALFGLDIEYHPKGLVTTPISRYIFLKTFLRGGEVALEIGTGHTAMMALMAEKFFNCKVTATEVDEEFFEYARRNIERNNSNVRLVKSNGGIIKGVVEGTFDVIFSAPPYYDKPLGRVLTEREAIGGGKYGEEFSVKLLEEAFDHLNPGGKVALYLPDKEKLLNVIKERGIKLGYSVKDIKFKVGTRWRHSLIFFKGISEGHHHHHH”, the protein production result is on record as “not failed”.
The value for “MSLNHHPIIYLVDHQKDARAALSKLLSPLDVTIQCFASAESFMRQQISDDAIGMIIEAHLEDKKDSGIELLETLVKRGFHLPTIVMASSSDIPTAVRAMRASAADFIEKPFIEHVLVHDVQQIINGAKEGHHHHHH” was “not failed”; that for “MSLQRVTNCIVVDHDQVLLLQKPRRGWWVAPGGKMEAGESILETVKREYWEETGITVKNPELKGIFSMVIFDEGKIVSEWMLFTFKATEHEGEMLKQSPEGKLEWKKKDEVLELPMAAGDKWIFKHVLHSDRLLYGTFHYTPDFELLSYRLDPEPQMKKKGIITITTDPNSSSVDKLAAALEHHHHHH” was “not failed”.
Regarding “MSLQTKILIIDGDKDNCQKLKGFLEEKGISIDLAYNCEEAIGKIFSNKYDLIFLEIILSDGDGWTLCKKIRNVTTCPIVYMTYINEDQSILNALNSGGDDYLIKPLNLEILYAKVKAILRRMNSYVNNEGHHHHHH”, the protein production result is “not failed”.
For “MSLRAKLIWPILVFITAIFVASKGYTSYTAYQSSKHELVEQTRKLINNVSYSIKDALTTKNKRKAQTILADLIEQPNVSRVKLYDRANELFVLLEGSGESAPVPNQNERSKLDALGYALSAKFLYVLEPIIHEGHVIGSIRVTLSYIPIINAQHSFLKDAGVLLLILAAGGIIFYITIDRIILRPLLDLNGAIQDVTFGNASHVQIRHHSKDELGEVIHAFNRMMTKLRKREKQRQHSLATLEQKRAFSEEVIESIQYALVITDNLGTIIHSNAATQHIFQKTPEALENANIRDLIKTKMPNELSQILSRCLECDDIHLQNIDNEQQLSLTTRRLSNHGYLLFAIQDITEIEEAMNRQRVAGRVFEASQDGLIVLNHKGVITMVNPAVTKLVGLEIDQLVGQSFIQTIRWRKLQEMMPSIIESIENYGVWQGEVIEQNHLGLLVPMFARVNRIVKCENNGFYDLVIILTDLSNAKEMERLEYLAHHDALTGLANRSKFHLELEDLVQRSGYQRDEFAVLYLDLDGFKEINDTYGHDAGDEVLKRVADRLTSATRHSDLIARLSGDEFVMLVNPANQKVVTRIAEQLLESICAPIEYKGNELKVGVSIGVKLVGVNERDATRILKSADTAMYQAKKAGKGQAILMGCELQETV” the value was “failed”.
The value for “MSLRIDPLGGESLKNQEVKGKKSGKTSRVGESKKKEFFDILEDVKEDHFEKLLEEAVEEVIDSGNELVRSPTPSNLKRYKNAIKEFLKLIEKKIYKLAGSFDMNSGRARLHLVVEEVNEKLMDLTEKIMKNEWQTINLAARIEEINGLILNLYREGHHHHHH” was “not failed”; that for “MSLRQDILLNNNWNFRFSHQVQGDTRRVDLPHTWNAQDALAGKIDYKRGIGNYEKALYIRPEWKGKRLFLRFDGVNSIADVFINRKHIGEHRGGYGAFIFEITDLVKYGEKNSVLVRANNGEQLDIMPLVGDFNFYGGIYRDVHLLITDETCISPLDYASPGVYLVQEVVSPQEAKVCAKVNLSNRAADGTAELQVLVTDGTKVICKESRNVSLKQGADILEQLPLLIQKPRLWNGCEDPFMYQVSISLHKDGKQIDSVTQPLGLRYYHTDPDKGFFLNGKHLPLHGVCRHQDRAEVGNALRPQHHEEDVALMREMGVNAIRLAHYPQATYMYDLMDKHGIVTWAEIPFVGPGGYADKGFVDQASFRENGKQQLIELIRQHYNHPSICFWGLFNELKEVGDNPVEYVKELNALAKQEDPTRPTTSASNQDGNLNFITENIAWNRYDGWYGSTPKTLATFLDRTHKKHPELRIGISEYGAGASIYHQQDSLKQPSASGWWHPENWQTYYHMENWKIIAERPFVWGTFVWNMFDFGAAHRTEGDRPGINDKGLVTFDRKVRKDAFYFYKANWNKQEPMIYLAEKRCRLRYQPEQTFMAFTTAPEAELFVNGVSCGKQKADTYSTVVWKNVKLTSGENIIRVTTPGKKPLTDEVTVEYKEDREGHHHHHH” was “not failed”; that for “MSLSKTFLNELANQALTNPNDFTKGEKKQESFLLEYVSANPTGPLHIGHARGAVFGDTLTRLARHLGYKFNTEYYVNDAGNQIYLLGLSILLSVKESILHENVEYPEQYYKGEYIVDLAKEAFEKFGKEFFSEENIPSLADWAKDKMLVLIKQNLEQAKIKIDSYVSERSYYDALNATLESLKEHKGIYEQEGKIWLASSQKGDEKDRVIIREDGRGTYLAADIVYHKDKMSRGYGKCINIWGADHHGYIPRMKAAMEFLGFDSNNLEIILAQMVSLLKDGEPYKMSKRAGNFILMSDVVDEIGSDALRYIFLSKKCDTHLEFDISDLQKEDSSNPVYYINYAHARIHQVFAKAGKKIDDVMKADLQSLNQDGVNLLFEALNLKAVLNDAFEARALQKIPDYLKNLAANFHKFYNENKVVGSANENDLLKLFSLVALSIKTAFSLMGIEAKNKMEHEGHHHHHH” was “not failed”.
